Molecular target: the molecule itself
Assay: cryo-EM structure; FtsE(E163Q)X with endogenously captured ATP, reconstituted into lipid nanodiscs (MSP1D1, E. coli polar extract, 1:2:200); 2.6 Å

B1: FtsX (natural protein, E. coli K12)
chain: RFRKSVGGSGDGGRNAPKRAKSSPKPVNRKTNVFNEQVRYAFHGALQDLKSKPFATFLTVMVIAISLTLPSVCYMVYKNVNQAATQYYPSPQITVYLQKTLDDDAAAGVVAQLQAEQGVEKVNYLSREDALGEFRNWSGFGGALDMLEENPLPAVAVVIPKLDFQGTESLNTLRDRITQINGIDEVRMDDSWFARLAALTGLVGRVSAMIGVLMVAAVFLVIGNSVRLSIFARRDSINVQKLIGATDGFILRPFLYGGALLGFSGALLSLILSEILVLRLSSAVAEVAQVFGTKFDINGLSFDECLLLLLVCSMIGWVAAWLATVQHLRHFTPE
notes: FtsX, E. coli K12, integral membrane protein of FtsEX (four transmembrane helices, periplasmic loop domain); gene amplified from genomic DNA; The gene was amplified from genomic DNA and no truncation or tag on FtsX is mentioned; also called FtsX of FtsEX; TMDs and PLDs
stoichiometry N: 2

B2: FtsE(E163Q) (enzyme, E. coli K12)
chain: IRFEHVSKAYLGGRQALQGVTFHMQPGEMAFLTGHSGAGKSTLLKLICGIERPSAGKIWFSGHDITRLKNREVPFLRRQIGMIFQDHHLLMDRTVYDNVAIPLIIAGASGDDIRRRVSAALDKVGLLDKAKNFPIQLSGGEQQRVGIARAVVNKPAVLLADQPTGNLDDALSEGILRLFEEFNRVGVTVLMATHDINLISRRSYRMLTLSDGHLHGGVGHE
notes: gene amplified from genomic DNA; The gene was amplified from genomic DNA and no truncation is mentioned; Removal of the 8×His-SUMO fusion from FtsE is not described; the complex with EnvC was recaptured on nickel; Retains endogenously captured ATP; also called NBD; FtsE of FtsE(E163Q)X; not shown: 8×His, N-terminal, kept
stoichiometry N: 2

— article PMC11491553, “Structural insights into the mechanotransducing mechanism of FtsEX in cell division” (MedComm, 2024)
